Data from US20220023333A1, “METHOD FOR INCREASING CANCER PATIENT'S HAEMOGLOBIN LEVEL” (priority 2019, published 2022).

Assay: Blood haemoglobin level in cancer patients (case examples 1-9)
Format: in vivo, human
Text: […] Diagnosis: progressive diffuse-nodular multiple myeloma of the stage IIIB. Myelogenic nephropathy, stage III CKD, terminal stage. Chronic programmed dialysis. The initial level of haemoglobin was 72 g/l. The receiving of EPO 20000 IU and iron preparations was prescribed for a month, as a result of which the level of haemoglobin increased to 84 g/l. However, the patient's condition worsened, and there were diagnosed acute transmural myocardial infarction and weight loss in the patient. The patient was prescribed the administration of 30 ml of the sterile pyrogen-free aqueous solution of the poloxamer comprising 13.3 wt % poloxamer-188 (Emuxol-268 of Grade “A”) and water for injection as the remaining part for 30 days. The level of haemoglobin was 116 g/l. Then, 30 ml of the said poloxamer solution was administered to the patient on a daily basis during 9 courses of chemotherapy (cyclophosphan and boramilane), while EPO and iron preparations were no longer prescribed. The level of haemoglobin was maintained in the range of 116-125 g/l.
[…] Diagnosis: locally advanced or metastatic bladder cancer of the 4t^h stage with lumbar vertebral metastases. The initial level of haemoglobin was 129 g/l.
Immunotherapy 1: the patient underwent a course of the therapy with the nivolumab preparation (Opdivo) for 4 months. […]

nivolumab
level of haemoglobin after therapy (Example 2, Patient A, bladder cancer 4th stage, nivolumab (Opdivo) for 4 months with regular donated red blood cell transfusion, initial level 129 g/l): 123000 µg/mL | level of haemoglobin after 1 course (Example 5, Patient D, right kidney tumor with metastases, nivolumab (Opdivo) immunotherapy, 1 course, initial level 148 g/l): 104000 µg/mL
